# Experimental data as given in patent publication US20150299313A1 (Chugai, published 2015).
# Substitutions are numbered along the chain they refer to.
# T1: soluble human IL-6 receptor (human, UniProt P08887 20-357)
# T1 construct: also called hsIL-6R; hIL6R
# T1 sequence: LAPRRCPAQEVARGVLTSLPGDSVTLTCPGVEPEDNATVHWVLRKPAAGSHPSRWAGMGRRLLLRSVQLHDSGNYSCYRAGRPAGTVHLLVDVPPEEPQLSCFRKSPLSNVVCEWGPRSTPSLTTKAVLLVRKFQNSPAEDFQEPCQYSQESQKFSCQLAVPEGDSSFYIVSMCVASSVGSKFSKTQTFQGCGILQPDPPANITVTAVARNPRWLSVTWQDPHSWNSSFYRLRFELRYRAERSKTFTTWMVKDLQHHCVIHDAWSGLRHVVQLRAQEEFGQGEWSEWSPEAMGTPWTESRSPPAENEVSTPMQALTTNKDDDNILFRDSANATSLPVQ
# B1: H54/L28-IgG1 (antibody, V domains shown)
# VH: QVQLQESGPGLVKPSETLSLTCAVSGYSISDDQAWSWVRQPPGEGLEWIGYISYSGITNYNPSLKGRVTISRDTSKNQFSLKLSSVTAADTAAYYCARSLARTTAMDYWGEGTLVTVSS
# VL: DIQMTQSPSSLSASVGDSVTITCQASQDISSYLNWYQQKPGKAPELLIYYGSELHSGVPSRFSGSGSGTDFTFTISSLEAEDAATYYCQQGNSLPYTFGQGTKVEIER
# notes: Humanized anti-IL-6 receptor antibody without pH or Ca dependency; not treated with sialidase; also called H54/L28-IgG1-SA (+); H54L28-IgG1-SA (+)
# B2: GL5-IgG1-SA (-) (antibody)
# heavy: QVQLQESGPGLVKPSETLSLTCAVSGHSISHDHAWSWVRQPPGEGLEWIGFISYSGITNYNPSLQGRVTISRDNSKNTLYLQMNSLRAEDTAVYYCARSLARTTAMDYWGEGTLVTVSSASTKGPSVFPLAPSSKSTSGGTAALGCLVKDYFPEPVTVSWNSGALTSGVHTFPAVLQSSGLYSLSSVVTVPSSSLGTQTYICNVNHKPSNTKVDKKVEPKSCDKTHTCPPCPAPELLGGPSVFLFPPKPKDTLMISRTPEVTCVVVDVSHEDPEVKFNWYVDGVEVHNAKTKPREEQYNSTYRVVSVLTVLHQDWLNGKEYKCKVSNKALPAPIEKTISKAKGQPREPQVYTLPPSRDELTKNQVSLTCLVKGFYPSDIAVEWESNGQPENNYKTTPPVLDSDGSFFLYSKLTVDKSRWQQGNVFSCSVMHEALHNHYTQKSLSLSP
# light: DIQMTQSPSSLSASVGDNVTITCNASTDISSHLNWYQQKPGKAPELLIYYGSHLLSGVPSRFSGSGSGTDFTFTISSLEAEDAATYYCGQGNRLPYTFGQGTKVEIERTVAAPSVFIFPPSDEQLKSGTASVVCLLNNFYPREAKVQWKVDNALQSGNSQESVTEQDSKDSTYSLSSTLTLSKADYEKHKVYACEVTHQGLSSPVTKSFNRGEC
# modifications: N-linked sugar chains at two sites of the light chain (Asn 20 and Asn 24, Kabat), sialic acid removed; N-linked sugar chain at Asn 297 (EU numbering), terminal sialic acid removed
# notes: Treated with sialidase
# B3: GL1-IgG1-SA (-) (antibody)
# heavy: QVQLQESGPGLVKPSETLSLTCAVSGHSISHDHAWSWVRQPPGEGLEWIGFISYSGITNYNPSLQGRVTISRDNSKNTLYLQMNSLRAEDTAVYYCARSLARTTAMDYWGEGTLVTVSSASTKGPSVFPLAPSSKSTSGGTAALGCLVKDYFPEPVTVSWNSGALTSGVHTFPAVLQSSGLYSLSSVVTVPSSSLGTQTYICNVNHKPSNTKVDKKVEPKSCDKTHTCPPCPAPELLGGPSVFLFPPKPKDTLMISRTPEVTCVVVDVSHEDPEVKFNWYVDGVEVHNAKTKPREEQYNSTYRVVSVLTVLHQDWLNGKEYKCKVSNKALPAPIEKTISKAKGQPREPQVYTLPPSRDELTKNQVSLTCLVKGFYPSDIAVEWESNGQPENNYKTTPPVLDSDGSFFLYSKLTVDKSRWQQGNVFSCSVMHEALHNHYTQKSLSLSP
# light: B2 light with N18S, N24Q
# modifications: N-linked sugar chain at Asn 297 (EU numbering), terminal sialic acid removed
# notes: also called GL1-IgG1 treated with neuraminidase/sialidase; Fv4-IgG1
# B4: GL1-IgG1-SA (+) (antibody)
# heavy: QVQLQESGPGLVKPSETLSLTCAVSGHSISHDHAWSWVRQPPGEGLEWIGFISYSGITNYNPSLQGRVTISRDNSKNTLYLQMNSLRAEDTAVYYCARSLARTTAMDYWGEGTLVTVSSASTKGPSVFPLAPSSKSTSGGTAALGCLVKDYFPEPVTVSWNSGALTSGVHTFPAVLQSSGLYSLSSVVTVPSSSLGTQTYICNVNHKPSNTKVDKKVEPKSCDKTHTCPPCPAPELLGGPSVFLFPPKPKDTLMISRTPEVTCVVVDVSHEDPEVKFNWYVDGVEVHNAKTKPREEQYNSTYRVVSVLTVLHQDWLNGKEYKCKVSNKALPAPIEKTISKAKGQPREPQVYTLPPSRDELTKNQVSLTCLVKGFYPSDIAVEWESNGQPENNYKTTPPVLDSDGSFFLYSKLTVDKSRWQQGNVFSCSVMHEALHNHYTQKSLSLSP
# light: B2 light with N18S, N24Q
# modifications: N-linked sugar chain at Asn 297 (EU numbering), sialic acid not removed
# notes: Same chains as GL1-IgG1-SA (-), not treated with sialidase; also called Fv4-IgG1
# B5: GL1-M111-SA (-) (antibody, human IgG1, kappa, N297A)
# heavy: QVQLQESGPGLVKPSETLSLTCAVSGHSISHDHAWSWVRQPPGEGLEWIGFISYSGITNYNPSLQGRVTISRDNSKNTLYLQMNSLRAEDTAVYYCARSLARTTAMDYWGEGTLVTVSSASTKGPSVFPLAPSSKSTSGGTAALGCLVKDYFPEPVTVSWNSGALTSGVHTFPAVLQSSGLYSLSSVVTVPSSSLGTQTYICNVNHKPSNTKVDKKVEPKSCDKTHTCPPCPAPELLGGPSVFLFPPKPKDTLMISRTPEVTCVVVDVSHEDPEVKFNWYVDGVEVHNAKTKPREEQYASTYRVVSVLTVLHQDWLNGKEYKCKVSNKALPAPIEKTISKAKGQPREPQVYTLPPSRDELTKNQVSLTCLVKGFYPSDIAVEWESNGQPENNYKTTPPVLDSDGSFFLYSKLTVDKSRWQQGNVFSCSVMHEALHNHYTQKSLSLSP
# light: B2 light with N18S, N24Q
# notes: No sugar chain on heavy or light chain; treated with neuraminidase
# B6: GL5-M111-SA (-) (antibody, human IgG1, kappa, N297A)
# heavy: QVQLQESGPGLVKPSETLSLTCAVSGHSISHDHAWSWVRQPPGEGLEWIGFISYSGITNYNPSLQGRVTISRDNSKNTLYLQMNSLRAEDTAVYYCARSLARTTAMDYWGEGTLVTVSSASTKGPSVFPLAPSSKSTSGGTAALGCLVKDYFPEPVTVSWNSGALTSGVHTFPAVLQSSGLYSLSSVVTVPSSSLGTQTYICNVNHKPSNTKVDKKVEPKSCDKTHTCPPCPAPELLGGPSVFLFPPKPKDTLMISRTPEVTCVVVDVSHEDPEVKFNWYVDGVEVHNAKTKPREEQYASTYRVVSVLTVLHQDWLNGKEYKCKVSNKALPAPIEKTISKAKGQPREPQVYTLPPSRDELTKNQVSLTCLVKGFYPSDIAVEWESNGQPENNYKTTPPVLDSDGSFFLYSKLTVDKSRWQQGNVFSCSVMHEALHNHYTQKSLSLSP
# light: B2 light
# modifications: two N-linked complex sugar chains (G2/G3/G4 combinations) at the sites introduced by Thr 20 to Asn and Gln 24 to Asn (Kabat), sialic acid removed, terminal galactose exposed
# notes: Treated with neuraminidase
# B7: GL9-M111-SA (-) (antibody, human IgG1, kappa, N297A)
# heavy: not shown
# light: B2 light with N18S
# modifications: N-linked complex sugar chain at the site introduced by Gln 24 to Asn (Kabat), sialic acid removed; N-linked complex sugar chain at the site introduced by Lys 75 to Asn (Kabat), sialic acid removed
# notes: Treated with neuraminidase
# B8: GL8-M111-SA (-) (antibody, human IgG1, kappa, N297A)
# heavy: not shown
# light: B2 light with N18S, T20N, N24Q
# modifications: N-linked complex sugar chain at the site introduced by Thr 20 to Asn (Kabat), sialic acid removed; N-linked complex sugar chain at the site introduced by Lys 75 to Asn (Kabat), sialic acid removed
# notes: Treated with neuraminidase
# B9: GL6-M111-SA (-) (antibody, human IgG1, kappa, N297A)
# heavy: not shown
# light: B2 light with N18S, N24Q
# modifications: N-linked complex sugar chain at the site introduced by Lys 75 to Asn (Kabat), sialic acid removed, terminal galactose exposed
# notes: Treated with neuraminidase
# B10: GL2-M111-SA (-) (antibody, human IgG1, kappa, N297A)
# heavy: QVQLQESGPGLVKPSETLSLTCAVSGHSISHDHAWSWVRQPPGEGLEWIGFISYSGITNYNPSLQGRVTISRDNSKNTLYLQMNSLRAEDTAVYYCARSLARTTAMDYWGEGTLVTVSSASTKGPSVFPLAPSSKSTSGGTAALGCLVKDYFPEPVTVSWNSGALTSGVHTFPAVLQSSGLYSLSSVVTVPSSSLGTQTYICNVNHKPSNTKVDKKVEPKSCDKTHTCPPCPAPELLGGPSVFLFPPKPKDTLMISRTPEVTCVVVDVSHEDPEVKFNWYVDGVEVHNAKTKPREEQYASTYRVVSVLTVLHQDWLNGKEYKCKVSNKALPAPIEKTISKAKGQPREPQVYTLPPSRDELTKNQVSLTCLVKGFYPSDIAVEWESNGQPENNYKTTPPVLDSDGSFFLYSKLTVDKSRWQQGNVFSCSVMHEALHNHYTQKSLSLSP
# light: B2 light with N24Q
# modifications: N-linked complex sugar chain at the site introduced by Ser 18 to Asn (Kabat), sialic acid removed, terminal galactose exposed
# notes: Treated with neuraminidase
# B11: GL10-M111-SA (-) (antibody, human IgG1, kappa, N297A)
# heavy: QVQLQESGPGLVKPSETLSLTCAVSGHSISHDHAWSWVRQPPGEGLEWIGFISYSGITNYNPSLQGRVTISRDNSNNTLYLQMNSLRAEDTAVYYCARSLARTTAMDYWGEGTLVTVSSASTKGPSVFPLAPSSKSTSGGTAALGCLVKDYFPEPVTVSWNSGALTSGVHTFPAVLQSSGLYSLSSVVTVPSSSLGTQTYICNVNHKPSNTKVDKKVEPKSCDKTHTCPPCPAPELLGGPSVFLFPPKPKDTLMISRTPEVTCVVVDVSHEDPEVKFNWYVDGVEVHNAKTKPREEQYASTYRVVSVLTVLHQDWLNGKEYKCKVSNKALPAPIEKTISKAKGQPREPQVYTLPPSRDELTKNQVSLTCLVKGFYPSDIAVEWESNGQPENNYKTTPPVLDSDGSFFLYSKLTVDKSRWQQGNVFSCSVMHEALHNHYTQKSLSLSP
# light: B2 light
# modifications: two N-linked complex sugar chains at the sites introduced by Thr 20 to Asn and Gln 24 to Asn (Kabat), sialic acid removed; N-linked complex sugar chain at the site introduced by Lys 75 to Asn (Kabat), sialic acid removed
# notes: Treated with neuraminidase
# B12: GL7-M111-SA (-) (antibody, human IgG1, kappa, N297A)
# heavy: not shown
# light: B2 light with N24Q
# modifications: N-linked complex sugar chain at the site introduced by Ser 18 to Asn (Kabat), sialic acid removed; N-linked complex sugar chain at the site introduced by Lys 75 to Asn (Kabat), sialic acid removed
# notes: Treated with neuraminidase
# B13: GL3-M111-SA (-) (antibody, human IgG1, kappa, N297A)
# heavy: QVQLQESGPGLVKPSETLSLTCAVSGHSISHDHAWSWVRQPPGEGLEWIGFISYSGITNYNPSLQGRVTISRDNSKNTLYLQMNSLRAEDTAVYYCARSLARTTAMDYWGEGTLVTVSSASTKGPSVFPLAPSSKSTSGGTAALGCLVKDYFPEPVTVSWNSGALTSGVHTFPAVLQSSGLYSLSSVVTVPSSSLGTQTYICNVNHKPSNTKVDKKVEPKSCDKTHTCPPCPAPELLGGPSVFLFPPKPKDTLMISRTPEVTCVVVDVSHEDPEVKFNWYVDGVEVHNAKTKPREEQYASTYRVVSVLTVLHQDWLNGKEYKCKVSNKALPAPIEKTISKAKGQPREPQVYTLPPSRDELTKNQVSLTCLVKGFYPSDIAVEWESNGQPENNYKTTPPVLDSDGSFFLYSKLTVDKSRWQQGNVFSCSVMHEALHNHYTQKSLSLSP
# light: B2 light with N18S, T20N, N24Q
# modifications: N-linked complex sugar chain at the site introduced by Thr 20 to Asn (Kabat), sialic acid removed, terminal galactose exposed
# notes: Treated with neuraminidase
# B14: GL4-M111-SA (-) (antibody, human IgG1, kappa, N297A)
# heavy: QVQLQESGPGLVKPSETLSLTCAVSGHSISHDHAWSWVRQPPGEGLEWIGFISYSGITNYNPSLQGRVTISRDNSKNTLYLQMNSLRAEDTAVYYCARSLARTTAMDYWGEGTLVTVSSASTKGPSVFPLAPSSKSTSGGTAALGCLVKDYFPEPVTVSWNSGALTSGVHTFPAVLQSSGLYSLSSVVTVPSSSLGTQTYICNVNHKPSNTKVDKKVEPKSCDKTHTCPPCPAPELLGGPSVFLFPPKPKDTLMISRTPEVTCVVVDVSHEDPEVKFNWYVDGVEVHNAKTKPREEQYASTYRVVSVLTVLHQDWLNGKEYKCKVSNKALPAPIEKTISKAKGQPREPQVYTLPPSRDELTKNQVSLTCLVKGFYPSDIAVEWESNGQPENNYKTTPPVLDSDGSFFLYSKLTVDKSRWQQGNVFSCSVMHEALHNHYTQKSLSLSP
# light: B2 light with N18S
# modifications: N-linked complex sugar chain at the site introduced by Gln 24 to Asn (Kabat), sialic acid removed, terminal galactose exposed
# notes: Treated with neuraminidase
# B15: GL1-IgG1_kif+ (antibody)
# heavy: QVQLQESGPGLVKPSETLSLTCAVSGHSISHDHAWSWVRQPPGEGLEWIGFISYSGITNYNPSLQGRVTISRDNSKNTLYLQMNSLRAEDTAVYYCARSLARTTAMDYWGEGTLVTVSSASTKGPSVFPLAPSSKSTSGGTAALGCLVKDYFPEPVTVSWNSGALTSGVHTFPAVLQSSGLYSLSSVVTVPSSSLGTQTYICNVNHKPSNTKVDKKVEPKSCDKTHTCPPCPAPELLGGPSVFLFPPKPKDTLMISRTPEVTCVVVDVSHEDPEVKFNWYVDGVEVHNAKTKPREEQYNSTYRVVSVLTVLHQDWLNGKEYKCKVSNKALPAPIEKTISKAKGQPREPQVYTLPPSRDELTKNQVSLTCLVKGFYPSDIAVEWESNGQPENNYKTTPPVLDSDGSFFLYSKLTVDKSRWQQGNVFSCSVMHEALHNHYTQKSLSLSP
# light: B2 light with N18S, N24Q
# modifications: high mannose sugar chain (expressed in the presence of kifunensine)
# notes: Expressed with 10 ug/mL kifunensine in the culture; also called GL1-G1_kif+
# B16: GL5-IgG1_kif+ (antibody)
# heavy: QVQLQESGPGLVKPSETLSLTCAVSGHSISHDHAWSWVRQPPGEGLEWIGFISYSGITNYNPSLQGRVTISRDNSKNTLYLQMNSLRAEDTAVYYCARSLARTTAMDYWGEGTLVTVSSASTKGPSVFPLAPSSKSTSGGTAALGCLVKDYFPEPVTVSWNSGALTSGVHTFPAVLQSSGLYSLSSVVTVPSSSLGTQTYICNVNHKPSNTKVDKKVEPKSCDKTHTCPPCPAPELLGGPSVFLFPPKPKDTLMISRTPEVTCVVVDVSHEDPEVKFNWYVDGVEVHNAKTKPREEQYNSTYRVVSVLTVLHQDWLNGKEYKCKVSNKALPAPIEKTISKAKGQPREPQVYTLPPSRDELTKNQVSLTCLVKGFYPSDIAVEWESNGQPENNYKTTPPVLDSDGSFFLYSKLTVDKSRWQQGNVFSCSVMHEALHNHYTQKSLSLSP
# light: B2 light
# modifications: two high mannose N-linked sugar chains (Man6-Man9 with Man9) on the light chain; high mannose sugar chain (expressed in the presence of kifunensine)
# notes: Expressed with 10 ug/mL kifunensine in the culture; also called GL5-G1_kif+
# Molecular target: T1, soluble human IL-6 receptor
# Test: SPR (Biacore T100), antibody captured on anti-human IgG F(ab')2, human IL-6 receptor as analyte, 37 C, pH 6.0
# Description: (§1) GL1-IgG1-SA (−) and GL5-IgG1-SA (−) were treated with sialidase and then used as measurement samples. An appropriate amount of Anti-Human IgG (γ-chain specific), F(ab′)2 fragment antibody produced in goat (Sigma) was immobilized onto Sensor chip CM5 (GE Healthcare) in accordance with the amine coupling method and then a target antibody was allowed to capture. Subsequently, a human IL-6 receptor dilution solution and a running buffer (a blank) were injected at a flow rate of 20 μL/min for 3 minutes to allow the human IL-6 receptor to interact with the antibody captured on the sensor chip. Either one of two types of running buffers pH 7.4 and pH 6.0 containing 10 mmol/L ACES, 150 mmol/L NaCl, and 0.05% (w/v) Tween20 was used and each buffer was employed for dilution of IL-6R. Thereafter, a running buffer was fed at a flow rate 20 μL/min for 5 minutes. After dissociation of the IL-6 receptor was observed, 10 mmol/L Glycine-HCl (pH 1.5) was injected at a flow rate of 30 μL/min for 5 seconds. This procedure was repeated five times to regenerate the sensor chip. All samples were measured at 37° C. From the sensorgram obtained by measurement, an association constant, ka (1/Ms) and a dissociation constant kd (1/s) as kinetics parameters were computationally obtained. From the values, KD (M) of each antibody to a human IL-6 receptor was calculated. Individual parameters were calculated by use of Biacore T100 Evaluation Software (GE Healthcare).
row,Binder,Kd
1,B1,3.4 nM
2,B2,52 nM
3,B3,61 nM
4,B4,66 nM

# Molecular target: T1, soluble human IL-6 receptor
# Test: SPR (Biacore T100), antibody captured on anti-human IgG F(ab')2, human IL-6 receptor as analyte, 37 C, pH 7.4
# Description: (§2) Then, kinetic analysis of an antigen-antibody reaction between each of GL1-M111-SA (−) and GL5-M111-SA (−) and a human IL-6 receptor was performed by using Biacore T100 (GE Healthcare). In both cases, measurement was performed by using an antibody treated with sialidase as a sample. An appropriate amount of Anti-Human IgG (γ-chain specific) F(ab′)2 fragment antibody produced in goat (Sigma) was immobilized onto Sensor chip CM5 (GE Healthcare) in accordance with the amine coupling method and then a target antibody was allowed to capture. Subsequently, a human IL-6 receptor dilution solution and a running buffer (a blank) were injected at a flow rate of 20 μL/min for 3 minutes to allow the human IL-6 receptor to interact with the antibody captured on the sensor chip. Either one of two types of running buffers pH 7.4 and pH 6.0 containing 10 mmol/L ACES, 150 mmol/L NaCl, and 0.05% (w/v) Tween20 was used, and each buffer was employed for dilution of IL-6R. Thereafter, a running buffer was fed at a flow rate 20 μL/min for 5 minutes. After dissociation of the IL-6 receptor was observed, 10 mmol/L Glycine-HCl (pH 1.5) was injected at a flow rate 30 μL/min for 5 seconds. […] All samples were measured at 37° C. […] From the values, KD (M) of each antibody to a human IL-6 receptor was calculated. Individual parameters were calculated by use of Biacore T100 Evaluation Software (GE Healthcare).
row,Binder,Kd
1,B5,2 nM
2,B6,1.9 nM

# Molecular target: T1, soluble human IL-6 receptor
# Test: SPR (Biacore T100), antibody captured on protein A, human IL-6 receptor as analyte, 37 C, pH 6.0
# Description: (§3) Kinetic analysis on the antigen-antibody reaction between each of GL1-IgG1-SA (−), GL1-M111-SA (−), GL2-M111-SA (−), GL3-M111-SA (−), GL4-M111-SA (−), GL5-M111-SA (−), GL6-M111-SA (−), GL7-M111-SA (−), GL8-M111-SA (−), GL9-M111-SA (−), GL10-M111-SA (−) and a human IL-6 receptor was performed by use of Biacore T100 (GE Healthcare). An appropriate amount of protein A (Invitrogen) was immobilized onto Sensor chip CM5 (GE Healthcare) by the amine coupling method and then a target antibody was allowed to capture. Subsequently, a human IL-6 receptor dilution solution and a running buffer (a blank) were injected at a flow rate of 20 μL/min for 3 minutes to allow the human IL-6 receptor to interact with the antibody captured on the sensor chip. Either one of two types of running buffers pH 7.4 and pH 6.0 containing 10 mmol/L ACES, 150 mmol/L NaCl, and 0.05% (w/v) Tween20 was used and each buffer was employed for dilution of IL-6R. Thereafter, the running buffer was fed at a flow rate of 20 μL/min for 5 minutes. After observation of dissociation of the IL-6 receptor, 10 mmol/L Glycine-HCl (pH 1.5) was injected at a flow rate of 30 μL/min for 30 seconds to regenerate the sensor chip. All samples were measured at 37° C. From the sensorgram obtained by measurement, an association constant, ka (1/Ms) and a dissociation constant, kd (1/s) as kinetics parameters were computationally obtained. Based on the obtained values, KD (M) of each antibody to a human IL-6 receptor was calculated. Individual parameters were calculated by use of Biacore T100 Evaluation Software (GE Healthcare).
row,Binder,Kd
1,B5,150 nM
2,B7,110 nM
3,B8,110 nM
4,B9,110 nM
5,B10,110 nM
6,B3,150 nM
7,B11,130 nM
8,B12,150 nM
9,B6,99 nM
10,B13,80 nM
11,B14,140 nM

# Molecular target: T1, soluble human IL-6 receptor
# Test: SPR (Biacore T100), antibody captured on anti-human IgG F(ab')2, human IL-6 receptor as analyte, 37 C, pH 7.4
# Remark: another data set of the same source
# Description: (§4) Using Biacore T100 (GE Healthcare), kinetic analysis of antigen-antibody reactions between each of GL1-IgG1_kif+ and GL5-IgG1_kif+ and a human IL-6 receptor was performed. An appropriate amount of Anti-Human IgG (γ-chain specific) F(ab′)2 fragment antibody produced in goat (Sigma) was immobilized onto Sensor chip CM5 (GE Healthcare) by the amine coupling method and then a target antibody was allowed to capture. Subsequently, a human IL-6 receptor dilution solution and a running buffer (a blank) were injected at a flow rate of 20 μL/min for 3 minutes to allow the human IL-6 receptor to interact with the antibody captured on the sensor chip. Either one of two types of running buffers (pH 7.4 and pH 6.0 containing 10 mmol/L ACES, 150 mmol/L NaCl, and 0.05% (w/v) Tween20) was used, and each buffer was employed for dilution of IL-6R. Thereafter, a running buffer was fed at a flow rate 20 μL/min for 5 minutes. After dissociation of the IL-6 receptor was observed, a 10 mmol/L Glycine-HCl (pH 1.5) solution was injected at a flow rate of 30 μL/min for 5 seconds. This procedure was repeated five times to regenerate the sensor chip. All samples were measured at 37° C. […] From the values, KD (M) of each antibody to a human IL-6 receptor was calculated. Individual parameters were calculated by use of Biacore T100 Evaluation Software (GE Healthcare).
row,Binder,Kd
1,B15,1.5 nM
2,B16,1.4 nM

# Molecular target: T1, soluble human IL-6 receptor
# Test: SPR (Biacore T100), antibody captured on anti-human IgG F(ab')2, human IL-6 receptor as analyte, 37 C, pH 6.0
# Remark: another data set of the same source
# Description: as §2
row,Binder,Kd
1,B5,66 nM
2,B6,57 nM

# Molecular target: T1, soluble human IL-6 receptor
# Test: SPR (Biacore T100), antibody captured on protein A, human IL-6 receptor as analyte, 37 C, pH 7.4
# Description: as §3
row,Binder,Kd
1,B5,1.8 nM
2,B7,2.3 nM
3,B8,2 nM
4,B9,2.6 nM
5,B10,1.6 nM
6,B3,1.8 nM
7,B11,2.4 nM
8,B12,2.4 nM
9,B6,1.5 nM
10,B13,1.3 nM
11,B14,1.7 nM

# Molecular target: T1, soluble human IL-6 receptor
# Test: SPR (Biacore T100), antibody captured on anti-human IgG F(ab')2, human IL-6 receptor as analyte, 37 C, pH 7.4
# Remark: another data set of the same source
# Description: as §1
row,Binder,Kd
1,B1,3.9 nM
2,B2,1.9 nM
3,B3,2.2 nM
4,B4,2.1 nM

# Molecular target: T1, soluble human IL-6 receptor
# Test: SPR (Biacore T100), antibody captured on anti-human IgG F(ab')2, human IL-6 receptor as analyte, 37 C, pH 6.0
# Remark: another data set of the same source
# Description: as §4
row,Binder,Kd
1,B15,71 nM
2,B16,66 nM
